# Measurements published in PMC7281375, “Therapeutic Targeting of Pancreatic Cancer via EphA2 Dimeric Agonistic Agents” (Pharmaceuticals, 2020).
# “Also recorded” adds a separate entry of the source.
# B1: ephrinA1-Fc: dimeric natural ligand of EphA2, Fc dimerized ephrinA1 (protein)
# chain: DRHTVFWNSSNPKFRNEDYTIHVQLNDYVDIICPHYEDHSVADAAMEQYILYLVEHEEYQLCQPQSKDQVRWQCNRPSAKHGPEKLSEKFQRFTPFTLGKEFKEGHSYYYISKPIHQHEDRCLRLKVTVSGKITHSPQAHDNPQEKRLAADDPEVRVLHSIGHS
# modifications: left off: Fc, end not stated, kept
# Tests used:
# EphA2 receptor [1] = conditions: monomeric agents; cited from earlier work
# Description: In order to evaluate the ability of each agent to activate the receptor, we tested them in various cellular assays as reported below. Because receptor activation causes its internalization and degradation, we opted to monitor the ability of each agent to reduce EphA2 levels over time, after exposure of cells to test ligands. […] First, we wanted to explore the effect of the linker length between the monomers and therefore tested side by sid ...
# EphA2 receptor [2] = assay: EphA2 degradation, Western blot of BxPC3 cell lysates; assay type: cell-based; conditions: BxPC3 cells, 1 h, several concentrations
# Protocol: In order to evaluate the ability of each agent to activate the receptor, we tested them in various cellular assays as reported below. Because receptor activation causes its internalization and degradation, we opted to monitor the ability of each agent to reduce EphA2 levels over time, after exposure of cells to test ligands. […] For these experiments we initially treated HCT116 cells with 10 μM concentration of each agent for 2.5 h, and cells lysates were probed for total EphA2 using anti-EphA2 antibody (1C11A12; Thermo Fisher Scientific) (Figure 3a). […] Because these agents had optimized side chains, we expected these to work at much lower concentrations compared to dimeric agents derived from 135B12 (Table 1).
# Figure 3 Dimeric and tetrameric EphA2 agonistic ligands degrade EphA2 receptor. […] Total ERK1/2 blot was used as a loading control.
# Figure 5 Pharmacological inhibition of EphA2 expression partially impairs migration of pancreatic cancer cells. […] (c) Western blot of BxPC3 cell lysates after exposure for 5 min, 1 h or 24 h to indicated agents. (d) Representative images from treated wells at times 0 and 30 h. **, p < 0.005; ***, p < 0.001. Error bars represent standard deviation. […]
# EphA2 receptor [3] = assay: EphA2 degradation, Western blot of HCT116 cell lysates; assay type: cell-based; conditions: HCT116 cells, ephrinA1-Fc 1 μg/mL, 2.5 h
# WT-BxPC3 cells = assay: Scratch wound cell migration assay (IncuCyte S3), WT-BxPC3; assay type: cell-based
# Description: The monomeric, unbound EphA2 receptor is known to be pro-oncogenic, inducing cell migration of cancer cells, while ephrinA1-Fc, inducing EphA2 dimer formation can suppressed this activity. To more directly examine the effect EphA2 on pancreatic cancer cell migration we first prepared a stable BxPC3 EphA2 knockout (KO) cell line and monitored its migratory properties using the scratch wound method and live-cell analysis (IncuCyte S3, Sartorius) (Figure 4). Briefly, homogeneous scratch wounds on plated cells were created by a 96-pin mechanical device (WoundMaker, Sartorius, Göttingen, Germany). Subsequently, live-cell imaging was performed to monitor the rate of wound closure. As controls, we also tested wild-type (WT) BxPC3 cells, and each cell type was treated with ephrinA1-Fc, or Fc as control (Figure 4).
# Cells were plated at 50 × 10^3 cells/well density in 96-well ImageLock plates (Sartorius). The following day, cells were scratched using the WoundMaker (Sartorius) and washed three times with PBS. Subsequently, cells were treated with the indicated compounds in RPMI-1640 complete media. […] Plates were imaged every two hours using IncuCyte S3 (Sartorius), and relative wound areas were analyzed using the algorithm of the imager cell migration software module.
# EphA2-KO BxPC3 cells = assay: Scratch wound cell migration assay (IncuCyte S3), EphA2-KO BxPC3; assay type: cell-based; conditions: EphA2-KO BxPC3, ephrinA1-Fc versus Fc
# Description: The monomeric, unbound EphA2 receptor is known to be pro-oncogenic, inducing cell migration of cancer cells, while ephrinA1-Fc, inducing EphA2 dimer formation can suppressed this activity. To more directly examine the effect EphA2 on pancreatic cancer cell migration we first prepared a stable BxPC3 EphA2 knockout (KO) cell line and monitored its migratory properties using the scratch wound method and live-cell analysis (IncuCyte S3, Sartorius) (Figure 4). Briefly, homogeneous scratch wounds on plated cells were created by a 96-pin mechanical device (WoundMaker, Sartorius, Göttingen, Germany). Subsequently, live-cell imaging was performed to monitor the rate of wound closure. As controls, we also tested wild-type (WT) BxPC3 cells, and each cell type was treated with ephrinA1-Fc, or Fc as control (Figure 4). […]
# Cells were plated at 50 × 10^3 cells/well density in 96-well ImageLock plates (Sartorius). […] Plates were imaged every two hours using IncuCyte S3 (Sartorius), and relative wound areas were analyzed using the algorithm of the imager cell migration software module.
# BxPC3 cells = assay: Cell proliferation during migration study; assay type: cell-based; conditions: BxPC3, treatments of the migration assay
# Description: Subsequently, we probed the effect of the pharmacological inhibition of EphA2 by our dimeric agents on the migratory properties of WT-BxPC3 in a similar assay (Figure 5a). […] Of note is that cell proliferation was not affected by either treatment with ephrinA1-Fc or by our agents.
molecule,measurement,setting,value
COc1ccc(C[C@H](NC(=O)[C@H](C)NC(=O)[C@H](CC(C)C)NC(=O)c2oc3c(OC)c(OC)ccc3c2C)C(=O)N2CCC[C@H]2C(=O)N[C@@H](CC(=O)O)C(=O)N[C@@H](C)C(=O)N[C@H](C(=O)N2C[C@H](O)C[C@H]2C(=O)N[C@@H](Cc2ccc(Cl)cc2)C(=O)N[C@@H](CCCNC(=N)N)C(=O)N2CCC[C@H]2C(N)=O)C(C)C)cc1 [135H11],concentration at which receptor activation was shown,EphA2 receptor [1],≥ 100 µM
COc1ccc(C[C@H](NC(=O)[C@H](C)NC(=O)[C@H](CC(C)C)NC(=O)c2oc3c(OC)c(OC)ccc3c2C)C(=O)N2CCC[C@H]2C(=O)N[C@@H](CC(=O)O)C(=O)N[C@@H](C)C(=O)N[C@H](C(=O)N2C[C@H](O)C[C@H]2C(=O)N[C@@H](Cc2ccc(Cl)cc2)C(=O)N[C@@H](CCCNC(=N)N)C(=O)N2CCC[C@H]2C(=O)NCC(=O)NCCCC[C@H](NC(=O)CNC(=O)[C@@H]2CCCN2C(=O)[C@H](CCCNC(=N)N)NC(=O)[C@H](Cc2ccc(Cl)cc2)NC(=O)[C@@H]2C[C@@H](O)CN2C(=O)[C@@H](NC(=O)[C@H](C)NC(=O)[C@H](CC(=O)O)NC(=O)[C@@H]2CCCN2C(=O)[C@H](Cc2ccc(OC)cc2)NC(=O)[C@H](C)NC(=O)[C@H](CC(C)C)NC(=O)c2oc3c(OC)c(OC)ccc3c2C)C(C)C)C(=O)N[C@@H](CCCCN)C(=O)NCCCC[C@H](NC(=O)[C@H](CCCCN)NC(=O)[C@H](CCCCNC(=O)CNC(=O)[C@@H]2CCCN2C(=O)[C@H](CCCNC(=N)N)NC(=O)[C@H](Cc2ccc(Cl)cc2)NC(=O)[C@@H]2C[C@@H](O)CN2C(=O)[C@@H](NC(=O)[C@H](C)NC(=O)[C@H](CC(=O)O)NC(=O)[C@@H]2CCCN2C(=O)[C@H](Cc2ccc(OC)cc2)NC(=O)[C@H](C)NC(=O)[C@H](CC(C)C)NC(=O)c2oc3c(OC)c(OC)ccc3c2C)C(C)C)NC(=O)CNC(=O)[C@@H]2CCCN2C(=O)[C@H](CCCNC(=N)N)NC(=O)[C@H](Cc2ccc(Cl)cc2)NC(=O)[C@@H]2C[C@@H](O)CN2C(=O)[C@@H](NC(=O)[C@H](C)NC(=O)[C@H](CC(=O)O)NC(=O)[C@@H]2CCCN2C(=O)[C@H](Cc2ccc(OC)cc2)NC(=O)[C@H](C)NC(=O)[C@H](CC(C)C)NC(=O)c2oc3c(OC)c(OC)ccc3c2C)C(C)C)C(N)=O)C(C)C)cc1 [135I1],EphA2 degradation,EphA2 receptor [2],not significantly more effective than its dimeric counterpart; also recorded: successfully degraded EphA2 receptor at nanomolar concentrations
B1,total EphA2 level (anti-EphA2 blot),EphA2 receptor [3],very effective in causing EphA2 degradation; also recorded: complete degradation of the receptor
same,"cell migration, relative wound density at 36 h","WT-BxPC3 cells; WT BxPC3, 1 μg/mL, versus Fc",WT cells treated with Fc migrated significantly faster than WT cells treated with ephrinA1-Fc
same,"cell migration, relative wound density after 30 h","WT-BxPC3 cells; WT-BxPC3, 1 µg/mL",significant decrease of cell migration
same,"cell migration, rate of migration over 36 h",EphA2-KO BxPC3 cells,did not significantly decrease the rate of migration
same,cell proliferation,BxPC3 cells,not affected
